Data as given in patent US20050142582, “Aptamers and methods for their in vitro selection and uses thereof” (The Regents of the University of California, published 2005).

Tests used:
[1] = target: T1, TTF1 (thyroid transcription factor 1) (Ciona intestinalis, UniProt O96738 O96738:1-477); experiment: SPR; kinetic global fit 1:1; steady-state Kd 65.6 nM; HBS-P pH 7.5, 150 mM NaCl; settings: tags: N-terminal His6 plus factor Xa site (pNHis vector), E. coli; label: biotin
T1 sequence: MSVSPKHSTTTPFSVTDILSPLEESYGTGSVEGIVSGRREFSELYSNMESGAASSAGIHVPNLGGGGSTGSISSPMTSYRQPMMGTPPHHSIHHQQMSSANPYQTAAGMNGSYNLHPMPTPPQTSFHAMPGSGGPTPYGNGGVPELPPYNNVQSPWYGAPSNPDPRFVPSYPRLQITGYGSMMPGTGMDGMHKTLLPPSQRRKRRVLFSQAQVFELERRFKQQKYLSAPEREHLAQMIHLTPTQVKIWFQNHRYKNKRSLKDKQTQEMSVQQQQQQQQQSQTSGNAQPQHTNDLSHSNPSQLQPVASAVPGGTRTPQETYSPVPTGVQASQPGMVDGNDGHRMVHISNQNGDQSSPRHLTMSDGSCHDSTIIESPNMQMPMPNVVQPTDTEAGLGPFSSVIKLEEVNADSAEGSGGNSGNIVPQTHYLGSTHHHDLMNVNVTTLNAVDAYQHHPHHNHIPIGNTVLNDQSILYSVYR
Description: (§1) The affinity, as described by the KD, was determined by a global fit using the kinetic simultaneous kₐ/kd model, assuming Langmuir (1:1) binding.
(§2) BIAcore surface plasmon resonance. The affinity of the aptamers for their protein targets was measured using surface plasmon resonance (SPR) with a BIAcore X instrument (BIAcore, Piscataway, N.J.). Biotinylated aptamer (QIAGEN Operon, Alameda, Calif.) was diluted to 0.5 ng/μL in HBS-P (10 mM HEPES, pH 7.5, 150 mM NaCl, 0.05% Tween 20), heated to 95° C., and rapidly cooled at 4° C. before use. Approximately 100 RU of biotinylated aptamer (ligand) was immobilized to one flow cell of a streptavidin coated sensor chip. Purified TTF1 protein was diluted into HBS-P to give a series of concentrations of TTF1 protein (3, 12, 31, 62, 125, 250 nM or 2.5, 5, 10, 20, 40, 100 nM) that were injected over the surface for 2 min at a flow rate of 20 μL/min (to minimize mass transfer limitations). Bulk shift and non-specific interactions with the streptavidin were subtracted using the response from a reference flow cell. […] The affinity, as described by the equilibrium dissociation constant (KD), was determined globally by fitting to the kinetic simultaneous kₐ/kd model, assuming Langmuir (1:1) binding. The steady-state affinity was determined from curve-fitting to a plot of the Req values, derived from sensorgrams fitted locally, against the concentrations.

[2] = target: BSA (UniProt P02769 P02769:25-607); experiment: ELONA; PBS-T, 4 C overnight; settings: label: biotin
Chain of BSA (P02769 25-607, one chain of several): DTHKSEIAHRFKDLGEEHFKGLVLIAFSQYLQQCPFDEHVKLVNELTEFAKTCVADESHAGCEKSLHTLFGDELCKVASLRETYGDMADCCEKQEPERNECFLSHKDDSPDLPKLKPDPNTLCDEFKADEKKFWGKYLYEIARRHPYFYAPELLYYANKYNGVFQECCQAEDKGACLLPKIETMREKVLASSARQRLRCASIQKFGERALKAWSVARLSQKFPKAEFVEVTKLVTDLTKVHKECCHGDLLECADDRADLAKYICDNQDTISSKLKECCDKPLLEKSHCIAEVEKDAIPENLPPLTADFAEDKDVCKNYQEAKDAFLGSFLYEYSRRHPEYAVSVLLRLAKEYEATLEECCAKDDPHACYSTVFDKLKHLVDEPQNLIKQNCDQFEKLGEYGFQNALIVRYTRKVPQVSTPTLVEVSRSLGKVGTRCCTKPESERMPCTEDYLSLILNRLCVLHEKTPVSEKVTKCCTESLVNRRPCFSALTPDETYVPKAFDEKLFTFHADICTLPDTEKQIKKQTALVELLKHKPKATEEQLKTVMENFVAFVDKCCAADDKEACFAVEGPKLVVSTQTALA

[3] = target: T1, TTF1 (thyroid transcription factor 1); experiment: SPR; kinetic global fit 1:1; steady-state Kd 5.14 nM; HBS-P pH 7.5, 150 mM NaCl; settings: tags: N-terminal His6 plus factor Xa site (pNHis vector), E. coli; label: biotin
Description: as §1, §2

[4] = target: XF1293 (hypothetical conserved protein) (Xylella fastidiosa, UniProt Q9PDT6 Q9PDT6:1-231); experiment: SPR; settings: tags: His6, E. coli; label: biotin
[5] = target: XF0749 (virulence regulator) (Xylella fastidiosa, UniProt Q9PFC9 Q9PFC9:1-134); experiment: SPR; settings: tags: His6, E. coli; label: biotin

B1: TTF1 Aptamer C (ssDNA)
DNA: GGTATTGAGGGTCGCATCTGGCTAGTGGGTAAGGGGCGGGAGGGTGACAGGGCGATCCGATGGCTCTAACTCTCCTCT
**Q.** With B1 as the binder, how does the Kd [1] read?
**A.** The Kd was 32.5 nM.

B2: TTF1 Aptamer A (ssDNA)
DNA: GGTATTGAGGGTCGCATCTCAAAAGGGGTGATTGCTTGCACAATGACAGGGTAGGACAGATGGCTCTAACTCTCCTCT
**Q.** Does B2 bind [2]?
**A.** Result: no binding

**Q.** What about the Kd [3] of the same binder?
**A.** The Kd was 3.36 nM.

B3: 6H1 (ssDNA)
DNA: GGTATTGAGGGTCGCATCGGCAAAAAGGATTGCCCAGGTCTGCTGTCTAGCCGGATTCGATGGCTCTAACTCTCCTCT
**Q.** Which Kd [4] does the source give for B3 here?
**A.** Its Kd is 0.08 nM.

B4: 6H5 (ssDNA)
DNA: GGTATTGAGGGTCGCATCGGCTTCAGGTTGGTCTGGTTGGGTTTGGCTCCTGTGTACGGATGGCTCTAACTCTCCTCT
**Q.** How did the Kd [4] turn out when B4 was run?
**A.** The Kd was 30 nM.

B5: 6H7 (ssDNA)
DNA: GGTATTGAGGGTCGCATCGCTATGGGTGGTCTGGTTGGGATTGGCCCCGGGAGCTGGCGATGGCTCTAACTCTCCTCT
**Q.** What does the source list for B5?
**A.** Kd [4]: 0.4 nM; Kd [5]: 42 nM
